Laboratory results reported in patent publication US20220289795, “EFFICIENT METHOD FOR PREPARING PPR PROTEIN AND USE OF THE SAME” (EditForce, Inc., published 2022).

Tests used:
Test in all cases: ELONA; RPB-ELISA
v3.1_PPR18 = target: T1, v3.1_PPR18 (Artificial Sequence); conditions: tags: luciferase fusion; label: 5'-biotin
T1 chain: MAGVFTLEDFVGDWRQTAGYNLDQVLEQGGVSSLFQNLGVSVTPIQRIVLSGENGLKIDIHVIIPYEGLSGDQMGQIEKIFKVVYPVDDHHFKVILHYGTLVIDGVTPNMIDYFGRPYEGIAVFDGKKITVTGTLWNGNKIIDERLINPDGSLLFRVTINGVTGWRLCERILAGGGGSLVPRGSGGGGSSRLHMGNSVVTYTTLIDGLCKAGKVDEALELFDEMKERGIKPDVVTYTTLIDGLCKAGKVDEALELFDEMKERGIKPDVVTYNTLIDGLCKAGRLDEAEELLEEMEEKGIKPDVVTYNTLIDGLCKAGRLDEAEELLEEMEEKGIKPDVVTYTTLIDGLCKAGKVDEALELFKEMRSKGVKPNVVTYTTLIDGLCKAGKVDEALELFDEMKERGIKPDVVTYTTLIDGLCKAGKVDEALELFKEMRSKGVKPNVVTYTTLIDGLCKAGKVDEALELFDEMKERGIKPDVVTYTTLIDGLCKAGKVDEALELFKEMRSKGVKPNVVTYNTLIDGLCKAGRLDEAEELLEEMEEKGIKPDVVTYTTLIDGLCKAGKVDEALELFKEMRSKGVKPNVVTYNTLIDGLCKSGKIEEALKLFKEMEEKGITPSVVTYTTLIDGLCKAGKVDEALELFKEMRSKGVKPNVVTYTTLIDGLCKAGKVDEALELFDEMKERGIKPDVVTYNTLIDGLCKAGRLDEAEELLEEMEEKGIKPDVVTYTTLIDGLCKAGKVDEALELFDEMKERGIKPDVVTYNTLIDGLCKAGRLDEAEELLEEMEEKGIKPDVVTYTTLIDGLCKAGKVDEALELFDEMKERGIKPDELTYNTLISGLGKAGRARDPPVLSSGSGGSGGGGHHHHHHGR

NL_v2_PPR18 = target: T2, NL_v2_PPR18 (Artificial Sequence); conditions: tags: N-term luciferase, C-term 6xHis; label: 5'-biotin
T2 chain: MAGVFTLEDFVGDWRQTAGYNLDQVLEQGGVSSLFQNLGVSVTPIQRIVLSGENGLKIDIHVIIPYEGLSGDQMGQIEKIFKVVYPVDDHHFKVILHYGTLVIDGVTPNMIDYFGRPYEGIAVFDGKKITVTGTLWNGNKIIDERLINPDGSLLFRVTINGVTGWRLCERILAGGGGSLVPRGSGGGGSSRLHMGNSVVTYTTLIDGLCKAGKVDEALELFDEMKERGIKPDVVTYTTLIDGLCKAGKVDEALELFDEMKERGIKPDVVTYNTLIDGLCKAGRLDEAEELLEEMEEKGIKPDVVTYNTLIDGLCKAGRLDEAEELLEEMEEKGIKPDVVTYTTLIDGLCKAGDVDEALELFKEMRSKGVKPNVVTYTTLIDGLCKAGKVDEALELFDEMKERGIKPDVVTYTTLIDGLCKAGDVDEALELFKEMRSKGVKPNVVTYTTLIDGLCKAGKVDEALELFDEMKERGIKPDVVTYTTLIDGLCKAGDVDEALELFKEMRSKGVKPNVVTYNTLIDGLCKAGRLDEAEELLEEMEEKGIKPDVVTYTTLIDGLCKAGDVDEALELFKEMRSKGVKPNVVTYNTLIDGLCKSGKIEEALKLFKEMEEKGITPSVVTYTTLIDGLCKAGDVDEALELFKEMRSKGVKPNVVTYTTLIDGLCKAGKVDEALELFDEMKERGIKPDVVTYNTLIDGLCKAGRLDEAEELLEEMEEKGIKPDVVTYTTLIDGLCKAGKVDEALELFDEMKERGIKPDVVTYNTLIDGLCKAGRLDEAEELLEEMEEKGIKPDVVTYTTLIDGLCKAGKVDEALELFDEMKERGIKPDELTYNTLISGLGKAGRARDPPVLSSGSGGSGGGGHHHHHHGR

NL_v2_PPR16 = target: T3, NL_v2_PPR16 (Artificial Sequence); conditions: tags: N-term luciferase, C-term 6xHis; label: 5'-biotin
T3 chain: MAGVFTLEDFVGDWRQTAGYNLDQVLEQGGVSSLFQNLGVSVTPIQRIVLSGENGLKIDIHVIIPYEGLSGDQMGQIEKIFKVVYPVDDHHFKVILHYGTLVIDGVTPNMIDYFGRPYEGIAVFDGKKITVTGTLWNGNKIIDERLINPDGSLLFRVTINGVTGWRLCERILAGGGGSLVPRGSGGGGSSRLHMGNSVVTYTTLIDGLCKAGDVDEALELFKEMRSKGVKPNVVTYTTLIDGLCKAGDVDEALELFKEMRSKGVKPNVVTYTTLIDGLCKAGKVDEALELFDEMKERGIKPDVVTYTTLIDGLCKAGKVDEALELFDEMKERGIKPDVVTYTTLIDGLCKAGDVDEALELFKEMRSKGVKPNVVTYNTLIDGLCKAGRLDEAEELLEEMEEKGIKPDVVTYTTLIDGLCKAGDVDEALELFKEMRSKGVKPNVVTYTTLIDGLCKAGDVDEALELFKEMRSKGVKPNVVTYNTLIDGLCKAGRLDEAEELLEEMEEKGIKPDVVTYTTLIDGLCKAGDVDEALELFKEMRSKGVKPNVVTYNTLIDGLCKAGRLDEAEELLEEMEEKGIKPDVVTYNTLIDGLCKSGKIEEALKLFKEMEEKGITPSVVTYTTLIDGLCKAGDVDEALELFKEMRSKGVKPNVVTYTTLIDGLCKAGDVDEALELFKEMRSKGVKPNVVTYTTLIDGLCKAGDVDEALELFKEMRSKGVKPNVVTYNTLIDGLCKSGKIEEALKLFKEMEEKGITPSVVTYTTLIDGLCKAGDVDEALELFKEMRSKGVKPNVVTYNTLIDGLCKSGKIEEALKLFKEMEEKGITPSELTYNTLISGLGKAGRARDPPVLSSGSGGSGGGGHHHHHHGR

v3.1_PPR16 = target: T4, v3.1_PPR16 (Artificial Sequence); conditions: tags: luciferase fusion; label: 5'-biotin
T4 chain: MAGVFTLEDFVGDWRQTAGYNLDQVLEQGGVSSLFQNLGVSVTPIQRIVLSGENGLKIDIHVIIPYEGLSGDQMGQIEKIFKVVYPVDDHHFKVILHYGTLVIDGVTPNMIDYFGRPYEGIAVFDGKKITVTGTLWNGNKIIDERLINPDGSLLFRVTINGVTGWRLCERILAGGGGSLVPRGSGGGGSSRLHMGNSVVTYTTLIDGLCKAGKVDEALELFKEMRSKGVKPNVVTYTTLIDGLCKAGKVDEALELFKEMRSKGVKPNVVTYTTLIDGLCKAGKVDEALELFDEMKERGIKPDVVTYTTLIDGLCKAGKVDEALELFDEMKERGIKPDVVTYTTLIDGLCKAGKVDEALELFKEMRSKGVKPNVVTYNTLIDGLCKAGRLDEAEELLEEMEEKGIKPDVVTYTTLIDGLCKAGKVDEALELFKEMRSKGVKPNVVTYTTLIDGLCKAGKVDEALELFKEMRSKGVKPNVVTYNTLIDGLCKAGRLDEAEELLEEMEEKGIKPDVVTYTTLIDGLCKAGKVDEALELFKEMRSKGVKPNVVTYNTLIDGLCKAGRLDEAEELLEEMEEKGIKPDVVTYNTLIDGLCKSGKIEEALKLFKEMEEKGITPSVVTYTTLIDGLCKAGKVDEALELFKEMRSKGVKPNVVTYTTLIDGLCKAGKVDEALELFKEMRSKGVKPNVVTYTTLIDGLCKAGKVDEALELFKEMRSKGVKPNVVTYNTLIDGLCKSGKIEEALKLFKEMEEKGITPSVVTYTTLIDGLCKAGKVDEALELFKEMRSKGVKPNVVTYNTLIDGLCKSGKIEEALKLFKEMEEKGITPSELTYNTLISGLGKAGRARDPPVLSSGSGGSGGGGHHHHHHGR

v3.1_PPR17 = target: T5, v3.1_PPR17 (Artificial Sequence); conditions: tags: luciferase fusion; label: 5'-biotin
T5 chain: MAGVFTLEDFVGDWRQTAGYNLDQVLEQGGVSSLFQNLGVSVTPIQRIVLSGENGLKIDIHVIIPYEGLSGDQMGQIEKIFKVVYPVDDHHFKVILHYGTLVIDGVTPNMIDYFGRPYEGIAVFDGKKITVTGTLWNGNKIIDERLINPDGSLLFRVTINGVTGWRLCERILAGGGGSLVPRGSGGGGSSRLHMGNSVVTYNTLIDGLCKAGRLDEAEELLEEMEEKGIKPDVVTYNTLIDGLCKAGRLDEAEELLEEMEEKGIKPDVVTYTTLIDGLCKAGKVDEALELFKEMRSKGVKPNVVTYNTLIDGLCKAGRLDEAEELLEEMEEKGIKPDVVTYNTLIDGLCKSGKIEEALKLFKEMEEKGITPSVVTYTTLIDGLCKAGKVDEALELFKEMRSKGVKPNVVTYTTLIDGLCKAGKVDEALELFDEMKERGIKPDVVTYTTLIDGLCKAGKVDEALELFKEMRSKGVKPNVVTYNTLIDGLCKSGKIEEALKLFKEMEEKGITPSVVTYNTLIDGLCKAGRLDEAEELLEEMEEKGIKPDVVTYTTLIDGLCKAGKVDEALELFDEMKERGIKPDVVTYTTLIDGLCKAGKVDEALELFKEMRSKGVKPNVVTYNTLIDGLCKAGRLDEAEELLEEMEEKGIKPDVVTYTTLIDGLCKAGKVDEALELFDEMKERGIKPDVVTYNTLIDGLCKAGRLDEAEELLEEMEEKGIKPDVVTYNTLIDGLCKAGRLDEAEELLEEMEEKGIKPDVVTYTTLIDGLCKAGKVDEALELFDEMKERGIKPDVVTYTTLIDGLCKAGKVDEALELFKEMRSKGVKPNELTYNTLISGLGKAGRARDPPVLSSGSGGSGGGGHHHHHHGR

B1: RNA_18 (ssRNA)
RNA: GACAUGCGGUUAGAGAUACAGUGUGGACUG
B1 gave a binding signal (v3.1_PPR18) of 2.9e+07 luminescence and a binding signal (NL_v2_PPR18) of 1.1e+07 luminescence.

B2: RNA_16 (ssRNA)
RNA: GACAUGCAAGGAUAAUAUCAAACACGACUG
B2 gave a binding signal (NL_v2_PPR16) of 2.8e+07 luminescence and a binding signal (v3.1_PPR16) of 6.3e+07 luminescence.

B3: RNA_17 (ssRNA)
RNA: GACAUGCUUAUCAGACUGAUGUUGAGACUG
For B3, the binding signal (v3.1_PPR17) was 3.3e+07 luminescence.
